Results on nine molecules are retold here after patent US20100227824A1 (SYMTHERA CANADA, published 2010).

Ends that are not written are not given here.

Common to all, as to assay: micro-array, phage-presented peptide on printed CK
The target in experiment [1] is T1, MCP-2 (CCL8) (UniProt P80075 24-99).
T1 construct: Bought chemokine
T1 sequence (looked up): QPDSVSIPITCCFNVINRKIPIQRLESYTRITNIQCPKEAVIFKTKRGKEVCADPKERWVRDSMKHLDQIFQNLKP
Here is the method: (§1) (1) Printing: Chemokine (CK) solution (in water) was serially diluted with Print Reagent (GenTel BioSurfaces USA) to final concentrations of 50 μg and 25 μg/ml. BSA/BSA-Biotin control solutions (in water) were diluted with Print Reagent to 100 μg/ml. Amplified stock of M13 phage control (M13KEgIII Cloning Vector, New England Biolabs, Cat.No.E8101S) was stored in Tris Buffered Saline (TBS; pH7.5, 4° C.) and diluted with Print Reagent to the working titre (10^8 pfu/μl). An automated spotting robot (16 pin print tool, 0.4mm head; BioRobotics, UK) was used to print the CK/BSA control/M13 control, 5 repeats per sample (CK 25 μg/ml and 50 μg/ml; BSA 100 μg/ml; M13 20 μl), on PATH Protein Microarray Slides (GenTel, Prod.No.2-1005/-1025) at […], and 50-70% relative humidity. Printed micro-array slides were stored at Room Temperature (RT) or 4° C. for at least 24 h before use.
(§2) (2) Blocking: Block Buffer (500 μl/partition; PATHblock, GenTel, Prod.No.2-1014) was applied to the slide for 1 hour at room temp (RT). After removal of Block Buffer, the slide was air dried for 25 minutes;
(§3) (11) Analysis: Quantitative analysis of micro-array was performed by the SpotReader program of Niles Scientific (USA) and presented as Relative Fluorescence (RF) as a function of CK concentration. Micro-array readout (Cy3 fluorescence) was quantified to determine the relative binding affinities of a CBP for the CKs and by inference, the specificity of the CBP for binding to a CK.

For experiment [2], the target named is T2, MCP-4 (CCL13) (UniProt Q99616 24-98).
T2 construct: Bought chemokine
T2 sequence (Q99616 24-98 limits assumed): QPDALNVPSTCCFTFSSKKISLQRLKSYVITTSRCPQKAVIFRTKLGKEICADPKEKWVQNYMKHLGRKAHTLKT
As for the experimental part: as §1, §2, §3

In experiment [3] the target is T3, I-TAC (CXCL11) (UniProt O14625 22-94).
T3 construct: Bought chemokine; also called I-TACK
T3 sequence (looked up): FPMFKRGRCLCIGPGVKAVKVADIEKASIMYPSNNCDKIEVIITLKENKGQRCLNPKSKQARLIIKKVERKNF
Here is the method:
as §1, §2, §3

In experiment [4] the target is T4, MCP-1 (CCL2) (UniProt P13500 24-99).
T4 construct: Bought chemokine
T4 sequence (P13500 24-99 limits assumed): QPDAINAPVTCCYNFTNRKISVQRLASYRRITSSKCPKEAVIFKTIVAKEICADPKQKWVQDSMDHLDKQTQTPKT
Here is the method: as §1, §2, §3

The target in experiment [5] is T5, RANTES (CCL5) (UniProt P13501 24-91).
T5 construct: Bought chemokine
T5 sequence (looked up): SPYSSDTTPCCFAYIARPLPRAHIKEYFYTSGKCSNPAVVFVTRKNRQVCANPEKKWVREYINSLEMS
Here is the method:
as §1, §2, §3

Experiment [6] concerns the target T6, Lymphotactin (XCL-1) (UniProt P47992 23-114, limits assumed).
T6 construct: Bought chemokine
T6 sequence (looked up): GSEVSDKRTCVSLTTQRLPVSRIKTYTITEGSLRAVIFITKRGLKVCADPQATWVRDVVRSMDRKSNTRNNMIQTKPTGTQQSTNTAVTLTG
Here is the method: as §1, §2, §3

In experiment [7] the target is T7, Eotaxin 3 (CCL26) (UniProt Q9Y258 24-94).
T7 construct: Bought chemokine
T7 sequence (looked up): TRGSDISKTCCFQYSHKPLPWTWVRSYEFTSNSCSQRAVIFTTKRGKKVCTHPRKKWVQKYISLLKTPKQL
Here is the method: as §1, §2, §3

The target in experiment [8] is T8, Eotaxin (CCL11) (UniProt P51671 24-97).
T8 construct: Bought chemokine
T8 sequence (P51671 24-97 limits assumed): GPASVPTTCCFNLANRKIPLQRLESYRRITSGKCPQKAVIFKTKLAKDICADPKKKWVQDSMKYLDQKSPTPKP
Here is the method:
as §1, §2, §3

Experiment [9] concerns the target T9, BCA-1 (CXCL13) (UniProt O43927 23-109).
T9 construct: Bought chemokine
T9 sequence (looked up): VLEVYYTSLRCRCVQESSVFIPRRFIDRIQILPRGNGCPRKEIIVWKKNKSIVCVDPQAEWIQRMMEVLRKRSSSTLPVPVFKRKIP
As for the experimental part:
as §1, §2, §3

The target in experiment [10] is T10, Eotaxin 2 (CCL24) (UniProt O00175 27-104, limits assumed).
T10 construct: Bought chemokine
T10 sequence (looked up): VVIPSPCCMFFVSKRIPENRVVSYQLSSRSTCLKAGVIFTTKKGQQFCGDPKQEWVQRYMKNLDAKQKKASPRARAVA
Here is the method: as §1, §2, §3

Experiment [11] concerns the target T11, Mig (CXCL9) (UniProt Q07325 23-125).
T11 construct: Bought chemokine
T11 sequence (looked up): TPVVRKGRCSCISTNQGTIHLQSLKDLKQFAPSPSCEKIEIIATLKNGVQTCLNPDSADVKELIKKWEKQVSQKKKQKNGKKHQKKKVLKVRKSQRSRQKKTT
Here is the method:
as §1, §2, §3

Experiment [12] deals with T12, Exodus-2 (CCL21) (UniProt O00585 24-134).
T12 construct: Bought chemokine
T12 sequence (looked up): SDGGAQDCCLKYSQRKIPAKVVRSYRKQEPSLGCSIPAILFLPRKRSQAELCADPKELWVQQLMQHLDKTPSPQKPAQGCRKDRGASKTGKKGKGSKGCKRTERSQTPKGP
As for the experimental part:
as §1, §2, §3

In experiment [13] the target is T13, GRO-β (CXCL2) (UniProt P19875 35-107).
T13 construct: Bought chemokine
T13 sequence (looked up): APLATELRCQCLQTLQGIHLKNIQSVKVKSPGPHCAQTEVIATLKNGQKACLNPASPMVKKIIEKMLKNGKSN
As for the experimental part: as §1, §2, §3

Experiment [14] concerns the target T14, TECK (CCL25) (UniProt O15444 24-150).
T14 construct: Bought chemokine
T14 sequence (looked up): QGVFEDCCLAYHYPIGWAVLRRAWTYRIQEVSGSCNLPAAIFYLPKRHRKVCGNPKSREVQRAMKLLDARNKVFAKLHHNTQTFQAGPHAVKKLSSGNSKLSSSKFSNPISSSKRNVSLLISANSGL
Here is the method: as §1, §2, §3

The target of experiment [15] is T15, IP-10 (CXCL10) (UniProt P02778 22-98).
T15 construct: Bought chemokine
T15 sequence (looked up): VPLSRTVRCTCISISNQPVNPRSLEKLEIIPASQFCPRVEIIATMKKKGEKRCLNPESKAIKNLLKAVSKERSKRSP
Here is the method:
as §1, §2, §3

Experiment [16] concerns the target T16, I-309 (CCL1) (UniProt P22362 23-96, limits assumed).
T16 construct: Bought chemokine
T16 sequence (looked up): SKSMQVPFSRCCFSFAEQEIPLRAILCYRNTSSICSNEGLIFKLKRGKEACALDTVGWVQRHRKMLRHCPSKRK
As for the experimental part:
as §1, §2, §3

B1: Phage Presented (Ph) Peptide (p) 8 (peptide)
peptide: WVFGNAMCK
notes: also called Ph-p28; Ph-p 8
In the case of B1, the “Relative Fluorescence Units (RFU)” value in experiment [1] and in experiment [2] was greater than 25000 RFU each time.

B2: Phage-Presented Peptide 27 (Ph-p27) (peptide)
peptide: SYYDDVGL
As for B2, the “Relative Fluorescence Units (RFU)” value in experiment [3] and in experiment [11] was greater than 15000 RFU each time. The binding result in experiment [4], in [5], in experiment [6], in [7], in experiment [8] and in experiment [9] was “binds” throughout. Moreover, the binding result in experiment [10], in experiment [12], in experiment [1], in [13], in [14] and in [2] was “binds” in each case.

B3: Phage-Presented Peptide 15 (Ph-p15) (peptide)
peptide: WVFGSGLCK
For the molecule B3, the “Relative Fluorescence Units (RFU)” value in experiment [3], in [15] and in experiment [11] was greater than 15000 RFU in each case. Besides, the binding result in [4], in [5], in [6], in experiment [7], in experiment [8] and in [9] was “binds” throughout. The binding result in [10], in experiment [12], in experiment [1], in experiment [13], in experiment [14] and in [2] was “binds” each time.

B4: Phage-Presented Peptide 8.4 (Ph-p8.4) (peptide)
peptide: WVFG
As for B4, the binding result in experiment [3], in experiment [6], in experiment [7], in [8], in experiment [16] and in experiment [9] was “binds” throughout. Besides, the binding result in experiment [15], in experiment [11] and in experiment [14] was “binds” each time. For the same molecule, the “Relative Fluorescence Units (RFU)” value in experiment [1] and in experiment [2] was greater than 15000 RFU throughout.

B5: Phage-Presented Peptide 20 (Ph-p20) (peptide)
peptide: TKCQKE
Take B5: the “Relative Fluorescence Units (RFU)” value in experiment [4], in [1] and in [2] was greater than 15000 RFU each time. The binding result in experiment [5], in experiment [6], in [7], in experiment [8], in experiment [9] and in [15] was “binds” in each case. In addition, the binding result in experiment [11], in experiment [12], in [13] and in experiment [14] was “binds” each time.

B6: Phage-Presented Peptide 8.1 (Ph-p8.1) (peptide)
peptide: GNAMCK
Turning to B6, the “Relative Fluorescence Units (RFU)” value in [6], in experiment [7], in experiment [9] and in experiment [14] was greater than 15000 RFU throughout.

B7: Phage-Presented Peptide 11 (Ph-p11) (peptide)
peptide: TTFFDYDYG
On to B7, for which the “Relative Fluorescence Units (RFU)” value in experiment [4], in experiment [1] and in [2] was greater than 600 RFU throughout. The binding result in [5], in experiment [6], in experiment [7], in [8], in [11] and in experiment [13] was “binds” in each case. For the same molecule, the binding result in experiment [14] is recorded as “binds”.

B8: Phage-Presented Peptide 17 (Ph-p17) (peptide)
peptide: HYTCSSHFP
modifications: also: displayed on M13 phage, fusion not given here
For B8, the binding result in experiment [3], in experiment [4], in experiment [6], in experiment [7], in [8] and in [11] was “binds” throughout. Also, the binding result in [13], in experiment [14] and in experiment [2] was “binds” in each case. The “Relative Fluorescence Units (RFU)” value in experiment [5] and in experiment [1] was greater than 600 RFU each time.

B9: Phage-Presented Peptide 18 (Ph-p18) (peptide)
peptide: DRYLNIVHAT
As to B9, the “Relative Fluorescence Units (RFU)” value in experiment [3] and in experiment [11] was greater than 9000 RFU each time. Also, the binding result in [4], in experiment [5], in experiment [6], in experiment [7], in [8] and in experiment [9] was “binds” throughout. Moreover, the binding result in experiment [10], in experiment [1], in experiment [13], in experiment [14] and in experiment [2] was “binds” each time.
